US20050277167
“Also recorded” adds a separate entry of the source.

Molecular target: [2,3-3H]-L-proline-labeled procollagen substrate

B1: chicken prolyl 3-hydroxylase 1 (chicken P3H1) (protein)
chain: AGPPGPLGPPEHSEPPLPAEPPDALFAAGAEAYARGDWPAVVLQMERALRARAAIRARSVRCRLRCANATAVVPTDGLEPTLHDLLFFRGLLRRAACLRGCGPTQPSRYRLGEELEREFRKRSPYNYLQVAYFKINKVAKAVAAAHTFFVANPEHVEMKQNLEYYQMMAGVRESDFADLEARPHMTEFRLGVRFYSEEQPAAAVLHLEKALQEYFVADTECRALCEGPYDYEGYNYLEYNADLFQAMTDHYMQVLSCKQGCVTELASQPGREKPLEDFLPSHFNYLQFAYYNNGNYEKAIECAKTYLLFFPNDEVMNQNLAYYTAVLGEDLARPIEPRKEIQAYRQRSLMEKELLFFSYDVFGIPFVDPDTWTPEEVIPKRLREKQKVERETAARISEEIGNLMKEIETLVEEKAKESAEMSKFIREGGPLVYEGASVTMNSKSLNGSQRVVVDGVLSAEECRELQRLTNAAASAGDGYRGKTSPHTPSETFYGVTVLKALKLGQEGKVPLQSAHLYYNVTEKVRHMMESYFRLEVPLHFSYSHLVCRTAIDEKQEGRSDNSHEVHVDNCILNAEALVCVKEPPAYTFRDYSAILYLNGDFEGGAFYFTELDAKTQTAEVQPQCGRAVGFSSGSENPHGVKAVTKGQRCAIALWFTLDPRHSERERVQADDLVKMLFRTEEVDLLQETSAEQEPTAATSTAGLHAAGKDEL
Km; prolyl 3-hydroxylase activity as release of tritiated water (THO), double reciprocal plot: a Km of 179 µl of substrate per 2 mls reaction volume; also recorded: or 89.5 µl of substrate per ml
